Measurements from the RNAGym collection of RNA variant scans (doi:10.1101/gr.219683.116).

B1: mRNA-splicing (parent)
chain: AGUUGCUGCUGGGAGCUCCAGCACAGUGAAAUGGACAGAAGGGCAGAGCAA

Variants of: B1
Assay: exon inclusion enrichment index; higher = more inclusion; WT1 exon 5 minigene, HEK293

Variant	exon inclusion enrichment index
G5C C6G U7C U10C U32G	0.601
G5C C6G U7C U10C G15A C16U	3.21
G5C C6G U7C U10C G15A C16A	3.14
G5C C6G U7C U10C G15A C16G	3.04
G5C C6G U7C U10C G41A	2.7
G5C C6G U7C U10C G41U	3.2
G5C C6G U7C U10C G41C	4.53
G5C C6G U7C U10C G26C U27A	3.33
G5C C6G U7C U10C G26C U27G	4.43
G5C C6G U7C U10C G26C U27C	4.24
G5C C6G U7C U10C G12U	1.53
G5C C6G U7C U10C G12A	2.53
G5C C6G U7C U10C G12C	0.252
G5C C6G U7C U10C G42A G43C	5.39
G5C C6G U7C U10C G42A G43U	5.36
G5C C6G U7C U10C G42A G43A	4.65
G5C C6G U7C U10C C18A C19G	1.5
G5C C6G U7C U10C C18A C19A	1.63
G5C C6G U7C U10C C18A C19U	0.321
G5C C6G U7C U10C G12U G13U	0.206
G5C C6G U7C U10C G12U G13A	0.404
G5C C6G U7C U10C G12U G13C	0.741
G5C C6G U7C U10C C19U A20U	1.48
G5C C6G U7C U10C C19U A20C	3.09

Variant	exon inclusion enrichment index
G5C C6G U7C U10C C19U A20G	1.14
G5C C6G U7C U10C G33A G34C	0.988
G5C C6G U7C U10C G33A G34U	0.979
G5C C6G U7C U10C G33A G34A	0.795
G5C C6G U7C U10C G43C C44A	3.83
G5C C6G U7C U10C G43C C44G	6.55
G5C C6G U7C U10C G43C C44U	3.09
G5C C6G U7C U10C G21C	3.41
G5C C6G U7C U10C G21A	2.93
G5C C6G U7C U10C G21U	2.48
G5C C6G U7C U10C C19G A20C	2.89
G5C C6G U7C U10C C19G A20U	3.16
G5C C6G U7C U10C C19G A20G	2.13
G5C C6G U7C U10C G11U G12C	1.54
G5C C6G U7C U10C G11U G12A	1.11
G5C C6G U7C U10C G11U G12U	1.49
G5C C6G U7C U10C C44U A45G	2.53
G5C C6G U7C U10C C44U A45U	2.84
G5C C6G U7C U10C C44U A45C	4.13
G5C C6G U7C U10C A40U G41C	3.11
G5C C6G U7C U10C A40U G41U	2.15
G5C C6G U7C U10C A40U G41A	0.26
G5C C6G U7C U10C G13C A14C	1.79
G5C C6G U7C U10C G13C A14U	1.88

Variant	exon inclusion enrichment index
G5C C6G U7C U10C G13C A14G	1.61
G5C C6G U7C U10C G33C G34U	2.86
G5C C6G U7C U10C G33C G34C	2.29
G5C C6G U7C U10C G33C G34A	2.48
G5C C6G U7C U10C C18G C19G	4.32
G5C C6G U7C U10C C18G C19A	4.24
G5C C6G U7C U10C C18G C19U	1.44
G5C C6G U7C U10C G46C A47U	2.37
G5C C6G U7C U10C G46C A47C	2.58
G5C C6G U7C U10C G46C A47G	3.52
G5C C6G U7C U10C G38U	1.34
G5C C6G U7C U10C G38C	2.56
G5C C6G U7C U10C G38A	2.05
G5C C6G U7C U10C G28C A29U	2.35
G5C C6G U7C U10C G28C A29C	2.81
G5C C6G U7C U10C G28C A29G	4.75
G5C C6G U7C U10C G15C C16U	3.37
G5C C6G U7C U10C G15C C16A	3.23
G5C C6G U7C U10C G15C C16G	3.66
G5C C6G U7C U10C G46C	2.78
G5C C6G U7C U10C G46U	2.51
G5C C6G U7C U10C G46A	3.39
G5C C6G U7C U10C G42A	4.32
G5C C6G U7C U10C G42C	4.75

Variant	exon inclusion enrichment index
G5C C6G U7C U10C G42U	4.02
G5C C6G U7C U10C C22A A23C	3.98
G5C C6G U7C U10C C22A A23U	2.83
G5C C6G U7C U10C C22A A23G	3.83
G5C C6G U7C U10C G28A A29U	1.28
G5C C6G U7C U10C G28A A29C	2.29
G5C C6G U7C U10C G28A A29G	2.1
G5C C6G U7G C9A	1.02
G5C C6G U7C U10C U27C G28C	4.03
G5C C6G U7C U10C U27C G28A	3.28
G5C C6G U7C U10C U27C G28U	2.8
G5C C6G U7C U10C G42U G43A	4.08
G5C C6G U7C U10C G42U G43U	4.33
G5C C6G U7C U10C G42U G43C	2.28
G5C C6G U7C U10C G43A	5.08
G5C C6G U7C U10C G43U	2.89
G5C C6G U7C U10C G43C	2.7
G5C C6G U7C U10C U17C	3.43
G5C C6G U7C U10C U17G	1.86
G5C C6G U7C U10C U17A	3.8
G5C C6G U7C U10C C44U	1.47
G5C C6G U7C U10C C44G	4.42
G5C C6G U7C U10C C44A	4.17
G5C C6G U7C U10C U32C G33A	2.09

Variant	exon inclusion enrichment index
G5C C6G U7C U10C U32C G33U	2.45
G5C C6G U7C U10C U32C G33C	3.68
G5C C6G U7C U10C A47C	3.06
G5C C6G U7C U10C A47U	3.3
G5C C6G U7C U10C A47G	0.871
G5C C6G U7C U10C A47G G48C	2.32
G5C C6G U7C U10C A47G G48U	0.733
G5C C6G U7C U10C A47G G48A	2.55
G5C C6G U7C U10C G34C	1.79
G5C C6G U7C U10C G34A	2.69
G5C C6G U7C U10C G34U	1.32
G5C C6G U7C U10C A40C G41U	1.83
G5C C6G U7C U10C A40C G41A	1.9
G5C C6G U7C U10C A40C G41C	3.53
G5C C6G U7C U10C C24U A25U	3.01
G5C C6G U7C U10C C24U A25C	4.56
G5C C6G U7C U10C C24U A25G	4.57
G5C C6G U7C U10C G34C A35C	0.321
G5C C6G U7C U10C G34C A35U	1.1
G5C C6G U7C U10C G34C A35G	2.84
G5C C6G U7C U10C A47U G48U	3.16
G5C C6G U7C U10C A47U G48C	2.42
G5C C6G U7C U10C A47U G48A	3.03
G5C C6G U7C U10C U32A G33A	2

Variant	exon inclusion enrichment index
G5C C6G U7C U10C U32A G33U	2.76
G5C C6G U7C U10C U32A G33C	3.67
G5C C6G U7C U10C C24A	3.28
G5C C6G U7C U10C C24G	4.23
G5C C6G U7C U10C C24U	1.76
G5C C6G U7C U10C C24G A25G	2.96
G5C C6G U7C U10C C24G A25U	3.91
G5C C6G U7C U10C C24G A25C	4.6
G5C C6G U7C U10C G13A A14U	2.93
G5C C6G U7C U10C G13A A14C	3.48
G5C C6G U7C U10C G13A A14G	3.3
G5C C6G U7C U10C G48U	4.46
G5C C6G U7C U10C G48C	3.91
G5C C6G U7C U10C G48A	4.29
G5C C6G U7C U10C A45U G46A	2.95
G5C C6G U7C U10C A45U G46C	2.33
G5C C6G U7C U10C A45U G46U	1.75
G5C C6G U7C U10C C19A	2.65
G5C C6G U7C U10C C19G	3.72
G5C C6G U7C U10C C19U	0.492
G5C C6G U7C U10C C36U A37C	2.78
G5C C6G U7C U10C C36U A37G	2.77
G5C C6G U7C U10C C36U A37U	2.2
G5C C6G U7C U10C G26A U27C	4.94

Variant	exon inclusion enrichment index
G5C C6G U7C U10C G26A U27G	3.56
G5C C6G U7C U10C G26A U27A	3.45
G5C C6G U7C U10C U17A C18G	4.2
G5C C6G U7C U10C U17A C18U	3.37
G5C C6G U7C U10C U17A C18A	2.9
G5C C6G U7C U10C G33A	0.609
G5C C6G U7C U10C G33U	1.79
G5C C6G U7C U10C G33C	3.55
G5C C6G U7C U10C G12C G13C	0.519
G5C C6G U7C U10C G12C G13U	0.128
G5C C6G U7C U10C G12C G13A	0.8
G5C C6G U7C U10C G11C	2.92
G5C C6G U7C U10C G11U	3.33
G5C C6G U7C U10C G11A	2.79
G5C C6G U7C U10C G26C	3.97
G5C C6G U7C U10C G26U	3.19
G5C C6G U7C U10C G26A	4.41
G5C C6G U7C U10C G33U G34C	1.15
G5C C6G U7C U10C G33U G34A	0.696
G5C C6G U7C U10C G33U G34U	0.875
G5C C6G U7C U10C G38C A39U	0.532
G5C C6G U7C U10C G38C A39C	2.86
G5C C6G U7C U10C G38C A39G	2.71
